doi:10.1101/2020.02.09.940833 (bioRxiv, 2020)

B1: SEC23A (natural protein)
chain: MTTYLEFIQQNEERDGVRFSWNVWPSSRLEATRMVVPVAALFTPLKERPDLPPIQYEPVLCSRTTCRAVLNPLCQVDYRAKLWACNFCYQRNQFPPSYAGISELNQPAELLPQFSSIEYVVLRGPQMPLIFLYVVDTCMEDEDLQALKESMQMSLSLLPPTALVGLITFGRMVQVHELGCEGISKSYVFRGTKDLSAKQLQEMLGLSKVPLTQATRGPQVQQPPPSNRFLQPVQKIDMNLTDLLGELQRDPWPVPQGKRPLRSSGVALSIAVGLLECTFPNTGARIMMFIGGPATQGPGMVVGDELKTPIRSWHDIDKDNAKYVKKGTKHFEALANRAATTGHVIDIYACALDQTGLLEMKCCPNLTGGYMVMGDSFNTSLFKQTFQRVFTKDMHGQFKMGFGGTLEIKTSREIKISGAIGPCVSLNSKGPCVSENEIGTGGTCQWKICGLSPTTTLAIYFEVVNQHNAPIPQGGRGAIQFVTQYQHSSGQRRIRVTTIARNWADAQTQIQNIAASFDQEAAAILMARLAIYRAETEEGPDVLRWLDRQLIRLCQKFGEYHKDDPSSFRFSETFSLYPQFMFHLRRSSFLQVFNNSPDESSYYRHHFMRQDLTQSLIMIQPILYAYSFSGPPEPVLLDSSSILADRILLMDTFFQILIYHGETIAQWRKSGYQDMPEYENFRHLLQAPVDDAQEILHSRFPMPRYIDTEHGGSQARFLLSKVNPSQTHNNMYAWGQESGAPILTDDVSLQVFMDHLKKLAVSSAA
B2: SEC23B (natural protein)
chain: MATYLEFIQQNEERDGVRFSWNVWPSSRLEATRMVVPLACLLTPLKERPDLPPVQYEPVLCSRPTCKAVLNPLCQVDYRAKLWACNFCFQRNQFPPAYGGISEVNQPAELMPQFSTIEYVIQRGAQSPLIFLYVVDTCLEEDDLQALKESLQMSLSLLPPDALVGLITFGRMVQVHELSCEGISKSYVFRGTKDLTAKQIQDMLGLTKPAMPMQQARPAQPQEHPFASSRFLQPVHKIDMNLTDLLGELQRDPWPVTQGKRPLRSTGVALSIAVGLLEGTFPNTGARIMLFTGGPPTQGPGMVVGDELKIPIRSWHDIEKDNARFMKKATKHYEMLANRTAANGHCIDIYACALDQTGLLEMKCCANLTGGYMVMGDSFNTSLFKQTFQRIFTKDFNGDFRMAFGATLDVKTSRELKIAGAIGPCVSLNVKGPCVSENELGVGGTSQWKICGLDPTSTLGIYFEVVNQHNTPIPQGGRGAIQFVTHYQHSSTQRRIRVTTIARNWADVQSQLRHIEAAFDQEAAAVLMARLGVFRAESEEGPDVLRWLDRQLIRLCQKFGQYNKEDPTSFRLSDSFSLYPQFMFHLRRSPFLQVFNNSPDESSYYRHHFARQDLTQSLIMIQPILYSYSFHGPPEPVLLDSSSILADRILLMDTFFQIVIYLGETIAQWRKAGYQDMPEYENFKHLLQAPLDDAQEILQARFPMPRYINTEHGGSQARFLLSKVNPSQTHNNLYAWGQETGAPILTDDVSLQVFMDHLKKLAVSSAC

Target: SAR1B (human, UniProt Q9Y6B6 1-198)
Sequence (Q9Y6B6 whole entry): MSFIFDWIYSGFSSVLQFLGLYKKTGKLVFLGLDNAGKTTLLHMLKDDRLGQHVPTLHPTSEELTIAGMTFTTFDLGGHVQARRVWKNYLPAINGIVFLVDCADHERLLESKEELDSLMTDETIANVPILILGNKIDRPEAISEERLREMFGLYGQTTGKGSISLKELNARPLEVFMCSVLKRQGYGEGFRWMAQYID
Experiment: liposome flotation

Row | Binder | fold binding relative to SAR1A, with SEC31A-af added [fold] | fold recruitment relative to SAR1A [fold]
1 | B1 | ~5 | ~5
2 | B2 | ~5 | ~5
